Measured values published in IntAct's records for PubMed 31515488.

B1: Peroxisomal bifunctional enzyme (Homo sapiens), Q08426 (parent)
chain: MAEYTRLHNALALIRLRNPPVNAISTTLLRDIKEGLQKAVIDHTIKAIVICGAEGKFSAGADIRGFSAPRTFGLTLGHVVDEIQRNEKPVVAAIQGMAFGGGLELALGCHYRIAHAEAQVGLPEVTLGLLPGARGTQLLPRLTGVPAALDLITSGRRILADEALKLGILDKVVNSDPVEEAIRFAQRVSDQPLESRRLCNKPIQSLPNMDSIFSEALLKMRRQHPGCLAQEACVRAVQAAVQYPYEVGIKKEEELFLYLLQSGQARALQYAFFAERKANKWSTPSGASWKTASARPVSSVGVVGLGTMGRGIVISFARARIPVIAVDSDKNQLATANKMITSVLEKEASKMQQSGHPWSGPKPRLTSSVKELGGVDLVIEAVFEEMSLKKQVFAELSAVCKPEAFLCTNTSALDVDEIASSTDRPHLVIGTHFFSPAHVMKLLEVIPSQYSSPTTIATVMNLSKKIKKIGVVVGNCFGFVGNRMLNPYYNQAYFLLEEGSKPEEVDQVLEEFGFKMGPFRVSDLAGLDVGWKSRKGQGLTGPTLLPGTPARKRGNRRYCPIPDVLCELGRFGQKTGKGWYQYDKPLGRIHKPDPWLSKFLSRYRKTHHIEPRTISQDEILERCLYSLINEAFRILGEGIAASPEHIDVVYLHGYGWPRHKGGPMFYASTVGLPTVLEKLQKYYRQNPDIPQLEPSDYLKKLASQGNPPLKEWQSLAGSPSSKL
partner: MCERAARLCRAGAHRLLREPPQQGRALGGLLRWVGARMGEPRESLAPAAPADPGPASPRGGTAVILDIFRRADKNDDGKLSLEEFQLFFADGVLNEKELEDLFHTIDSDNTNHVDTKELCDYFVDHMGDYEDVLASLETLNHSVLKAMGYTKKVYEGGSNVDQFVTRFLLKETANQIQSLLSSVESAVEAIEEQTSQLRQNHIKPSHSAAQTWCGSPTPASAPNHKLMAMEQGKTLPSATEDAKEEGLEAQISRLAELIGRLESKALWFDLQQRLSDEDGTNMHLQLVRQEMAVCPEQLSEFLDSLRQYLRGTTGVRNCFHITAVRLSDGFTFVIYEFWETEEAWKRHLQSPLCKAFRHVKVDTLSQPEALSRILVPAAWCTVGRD
B2: Notch homolog 2 N-terminal-like protein A (Homo sapiens), Q7Z3S9 (parent)
chain: MCVTYHNGTGYCKCPEGFLGEYCQHRDPCEKNRCQNGGTCVAQAMLGKATCRCASGFTGEDCQYSTSHPCFVSRPCLNGGTCHMLSRDTYECTCQVGFTGKECQWTDACLSHPCANGSTCTTVANQFSCKCLTGFTGQKCETDVNECDIPGHCQHGGTCLNLPGSYQCQCLQGFTGQYCDSLYVPCAPSPCVNGGTCRQTGDFTFECNCLPETVRRGTELWERDREVWNGKEHDEN
partner: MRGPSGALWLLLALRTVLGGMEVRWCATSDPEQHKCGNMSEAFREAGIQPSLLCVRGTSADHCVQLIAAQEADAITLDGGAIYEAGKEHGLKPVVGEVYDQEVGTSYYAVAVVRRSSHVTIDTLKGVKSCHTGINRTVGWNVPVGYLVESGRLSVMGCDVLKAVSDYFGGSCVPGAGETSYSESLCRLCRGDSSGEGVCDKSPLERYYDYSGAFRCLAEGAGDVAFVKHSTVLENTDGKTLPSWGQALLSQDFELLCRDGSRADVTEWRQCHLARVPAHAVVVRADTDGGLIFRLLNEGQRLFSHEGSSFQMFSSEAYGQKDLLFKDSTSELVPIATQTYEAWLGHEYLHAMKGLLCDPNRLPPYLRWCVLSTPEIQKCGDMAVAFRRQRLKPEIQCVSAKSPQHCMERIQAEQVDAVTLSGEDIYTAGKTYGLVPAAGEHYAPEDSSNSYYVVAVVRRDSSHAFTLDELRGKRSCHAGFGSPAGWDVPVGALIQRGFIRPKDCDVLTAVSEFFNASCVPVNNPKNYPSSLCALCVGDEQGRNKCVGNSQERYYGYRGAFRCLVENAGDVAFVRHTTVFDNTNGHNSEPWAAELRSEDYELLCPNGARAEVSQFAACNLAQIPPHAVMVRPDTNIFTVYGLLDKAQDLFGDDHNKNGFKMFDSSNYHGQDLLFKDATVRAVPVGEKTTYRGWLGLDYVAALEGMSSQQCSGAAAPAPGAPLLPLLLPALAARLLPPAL
B3: 5'-AMP-activated protein kinase subunit beta-2 (Homo sapiens), O43741 (parent)
chain: MGNTTSDRVSGERHGAKAARSEGAGGHAPGKEHKIMVGSTDDPSVFSLPDSKLPGDKEFVSWQQDLEDSVKPTQQARPTVIRWSEGGKEVFISGSFNNWSTKIPLIKSHNDFVAILDLPEGEHQYKFFVDGQWVHDPSEPVVTSQLGTINNLIHVKKSDFEVFDALKLDSMESSETSCRDLSSSPPGPYGQEMYAFRSEERFKSPPILPPHLLQVILNKDTNISCDPALLPEPNHVMLNHLYALSIKDSVMVLSATHRYKKKYVTTLLYKPI
B4: NAD kinase (Homo sapiens), O95544 (parent)
chain: MEMEQEKMTMNKELSPDAAAYCCSACHGDETWSYNHPIRGRAKSRSLSASPALGSTKEFRRTRSLHGPCPVTTFGPKACVLQNPQTIMHIQDPASQRLTWNKSPKSVLVIKKMRDASLLQPFKELCTHLMEENMIVYVEKKVLEDPAIASDESFGAVKKKFCTFREDYDDISNQIDFIICLGGDGTLLYASSLFQGSVPPVMAFHLGSLGFLTPFSFENFQSQVTQVIEGNAAVVLRSRLKVRVVKELRGKKTAVHNGLGENGSQAAGLDMDVGKQAMQYQVLNEVVIDRGPSSYLSNVDVYLDGHLITTVQGDGVIVSTPTGSTAYAAAAGASMIHPNVPAIMITPICPHSLSFRPIVVPAGVELKIMLSPEARNTAWVSFDGRKRQEIRHGDSISITTSCYPLPSICVRDPVSDWFESLAQCLHWNVRKKQAHFEEEEEEEEEG
partner: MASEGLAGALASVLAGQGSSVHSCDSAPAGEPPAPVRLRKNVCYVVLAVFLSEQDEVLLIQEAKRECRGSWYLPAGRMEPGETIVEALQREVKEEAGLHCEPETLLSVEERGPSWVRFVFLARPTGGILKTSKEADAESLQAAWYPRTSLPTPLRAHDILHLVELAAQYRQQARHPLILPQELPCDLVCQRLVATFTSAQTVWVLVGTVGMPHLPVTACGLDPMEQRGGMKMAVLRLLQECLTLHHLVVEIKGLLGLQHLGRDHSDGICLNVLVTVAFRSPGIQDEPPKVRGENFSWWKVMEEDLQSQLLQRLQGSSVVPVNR

Variants of: B1
Settings: with neca2_human NECAB2, Q7Z6G3

| effect of a mutation on the interaction | Variant |
| --- | --- |
| with no effect | S703F |
| disrupting interaction strength | I646T |
| disrupting interaction strength | R483Q |
| disrupting interaction strength | L715S |

Variants of: B2
Settings: with trfm_human MELTF

| effect of a mutation on the interaction | Variant |
| --- | --- |
| with no effect | A115T |
| with no effect | R74Q |

Variants of: B3
Settings: with oxda_human DAO

| effect of a mutation on the interaction | Variant |
| --- | --- |
| with no effect | G55E |

Variants of: B3
Settings: with mdfi_human MDFI

| effect of a mutation on the interaction | Variant |
| --- | --- |
| with no effect | G55E |

Variants of: B3
Settings: with crx_human CRX

| effect of a mutation on the interaction | Variant |
| --- | --- |
| with no effect | G55E |

Variants of: B3
Settings: with cdx4_human CDX4, O14627
Chain of cdx4_human CDX4, O14627 (O14627 whole entry): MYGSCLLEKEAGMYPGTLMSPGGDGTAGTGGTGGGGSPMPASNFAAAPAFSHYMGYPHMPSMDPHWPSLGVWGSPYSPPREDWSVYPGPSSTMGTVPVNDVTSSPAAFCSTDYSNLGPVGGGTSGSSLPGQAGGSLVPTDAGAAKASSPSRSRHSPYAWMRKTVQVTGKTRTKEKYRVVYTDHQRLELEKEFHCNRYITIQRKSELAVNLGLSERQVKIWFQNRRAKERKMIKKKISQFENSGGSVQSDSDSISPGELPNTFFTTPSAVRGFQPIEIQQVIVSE

| effect of a mutation on the interaction | Variant |
| --- | --- |
| with no effect | G55E |

Variants of: B4
Settings: with nud18_human NUDT18, Q6ZVK8

| effect of a mutation on the interaction | Variant |
| --- | --- |
| with no effect | R249W |
